Test results published in patent US20260193326A1 (published 2026).
Where a chain is given by its changes, count along the chain named.

B1: A4-009 (VHH)
VHH: VQLQESGGGLAQPGGSLRLSCAASGSRFSINTMGWYRQAPGKQREFVAAVTRGGSTNYAGSVKGRFTISRDNAKNTVYLQMNTLRPEDTAVYYCHVDEVRQSSWTTSNIWGQGTQVTVSS
B2: A4-018 (VHH)
VHH: B1 VHH with A11V, P13A, A49T, S55N, G60E, T83S, Q101D
B3: A4-022 (VHH)
VHH: VQLQESGGGLVQPGGSLRLSCAASGSGFSINTMGWYRQAPGKQRELVATVTRDGSTNYADFVKGRFTISRDNAKNTVYLQMNSLRPEDTAVYYCHLDEVRESSWTTSNLWGQGTQVTVSS
B4: A4-030 (VHH)
VHH: B1 VHH with A11V, R27S, S29T, F46L, V77I, T83S, V99I, I109L
B5: A4-010 (VHH)
VHH: B3 VHH with P13A, G27I, T32S, D53G, S55N, F61S, L96V
B6: A4-019 (VHH)
VHH: B1 VHH with A11V, P13A, R27T, F46L, A49T, V50I, G60D, T83S
B7: A4-023 (VHH)
VHH: B3 VHH with G27A, T49S, R52P, D53G, F61S, V77I
B8: A4-015 (VHH)
VHH: VQLQESGGGLVQPGGSLRLSCAASGSIFSINLMGWYRQAAGKQRELVATITPGGNTNYAGSVKGRFTISRDNAKNTVYLQMNSLRPEDTAVYYCHVDEVRQSSWTTSNLWGQGTQVTVSS
B9: A4-016 (VHH)
VHH: B8 VHH with A40P
B10: A4-013 (VHH)
VHH: B3 VHH with G27R, T32S, D53G, S55N, F61S, L96V
B11: A4-020 (VHH)
VHH: B8 VHH with P13A, I27T, L32T, A40P, P52R, G60D
B12: A4-025 (VHH)
VHH: B3 VHH with G27N, S29R, D53G, F61S, A73P, N75D, L96V
B13: A4-014 (VHH)
VHH: B8 VHH with I27R, L32S, A40P, I50V, P52R, Q101E
B14: A4-033 (VHH)
VHH: B3 VHH with A22V, G27S, Q38R, D60N, F61S, L96V, E101Q
B15: A4-028 (VHH)
VHH: B3 VHH with G27N, D53G, S55D, F61S, L96V, V99I
B16: A4-026 (VHH)
VHH: B3 VHH with G27N, S29R, T49P, D53G, F61S, L96V
B17: A4-031 (VHH)
VHH: B3 VHH with R52S, D53A, D60G, F61S, L96V, V99I, E101Q
B18: A4-027 (VHH)
VHH: B3 VHH with G27N, T49A, V50L, D53G, F61S, L96V
B19: A4-017 (VHH)
VHH: B8 VHH with A40P, P52R
B20: A4-029 (VHH)
VHH: B3 VHH with G27N, A39R, P40A, D53G, F61S, L96I, V99I

target: T1, AAV5; experiment: SPR, AAV on CM5 chip;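 note: surface plasmon resonance with AAV amine-coupled to the chip as ligand, nanobodies injected as analyte over a concentration series, rate constants and affinity fitted from binding curves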
T1 construct: also called adeno-associated virus serotype 5
Experimental: (§1) AAV was amine-coupled to a CM5 sensor chip at a density of 500-800 response units (RU). Nanobodies were injected at seven concentrations (1-100 nM) with a flow rate of 45 μL/min, and chip regeneration was performed using glycine-HCl (pH 1.5). Binding curves at different nanobody concentrations were used to calculate kinetic parameters (Kₐ, Kd, KD) (Table 2 and FIG. 2).

Binder	Kd [nM]	koff [s⁻¹]	kon [M⁻¹ s⁻¹]
B1	141	0.00698	49700
B2	0.962	0.00014	146000
B3	9.61	0.00152	158000
B4	84.4	0.00028	3320
B5	267	0.00038	1420
B6	48.9	0.00156	31900
B7	12.4	0.00126	102000
B8	2.76	0.00052	189000
B9	23.9	0.00158	66000
B10	7.24	0.00011	15200
B11	169	0.00094	5550
B12	85.5	0.00041	4800
B13	597	0.00529	8860
B14	243	0.002	8220
B15	26.4	0.00162	61300
B16	37.4	0.00625	167000
B17	41.9	0.00624	149000
B18	236	0.00194	8220
B19	542	0.00164	3030
B20	92.8	0.00155	16700

target: T2, AAV9; experiment: SPR, AAV on CM5 chip;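 note: surface plasmon resonance with AAV amine-coupled to the chip as ligand, nanobodies injected as analyte over a concentration series, rate constants and affinity fitted from binding curves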
T2 construct: also called adeno-associated virus serotype 9
Experimental: as §1

Binder	Kd [nM]	koff [s⁻¹]	kon [M⁻¹ s⁻¹]
B1	100	0.0139	139000
B2	62.1	0.00745	120000
B3	28.5	0.0001	3510
B4	27.2	0.00025	9200
B5	380	0.0329	86600
B6	451	0.00525	11700
B7	2.88	0.00056	195000
B8	3.39	0.00017	50100
B9	131	0.00047	3600
B10	480	0.0379	79100
B11	73.7	0.00169	23000
B12	0.737	0.00012	163000
B13	13.3	0.00085	64000
B14	199	0.00045	2270
B15	1.09	9e-05	82400
B16	31	0.00253	81600
B17	2240	0.00824	3690
B18	208	0.00085	4090
B19	0.724	4e-05	55300
B20	14.6	0.00141	96900

target: T3, AAV8; experiment: SPR, AAV on CM5 chip;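 note: surface plasmon resonance with AAV amine-coupled to the chip as ligand, nanobodies injected as analyte over a concentration series, rate constants and affinity fitted from binding curves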
T3 construct: also called adeno-associated virus serotype 8
Experimental: as §1

Binder	Kd [nM]	koff [s⁻¹]	kon [M⁻¹ s⁻¹]
B1	103	0.00219	21400
B2	34.9	0.00392	112000
B3	1.19	6.2e-05	52100
B4	43.7	0.00034	7780
B5	169	0.00249	14700
B6	6.84	0.00077	113000
B7	143	0.00125	8730
B8	9.74	0.0017	174000
B9	9.58	0.00146	152000
B10	1220	0.00737	6060
B11	0.506	5.66e-05	112000
B12	2.09	0.00026	124000
B13	384	0.00109	2840
B14	89.2	0.00034	3810
B15	6.34	0.00084	133000
B16	27.2	0.00184	67700
B17	182	0.00923	50700
B18	105	0.00085	8100
B19	140	0.0002	1430
B20	0.486	4e-05	82300
